The results in this text go back to paper PMC9077843.

One data set can be described thus: Western blot, HEK293T. To be noted: glycan lost; control: B3GNT5-WT-Flag. On the technique in general: Immunoblotting shows a protein as a band on a membrane.
Data set [1] is described as follows: Western blot, MDA-MB231 and BT549, B3GNT5-WT-mcherry. As to conditions: glycan lost; control: untreated.

B1: B3GNT5 (β1,3-N-acetylglucosaminyltransferase V): 4NQ (protein)
parent chain: MRMLVSGRRVKKWQLIIQLFATCFLASLMFFWEPIDNHIVSHMKSYSYRYLINSYDFVNDTLSLKHTSAGPRYQYLINHKEKCQAQDVLLLLFVKTAPENYDRRSGIRRTWGNENYVRSQLNANIKTLFALGTPNPLEGEELQRKLAWEDQRYNDIIQQDFVDSFYNLTLKLLMQFSWANTYCPHAKFLMTADDDIFIHMPNLIEYLQSLEQIGVQDFWIGRVHRGAPPIRDKSSKYYVSYEMYQWPAYPDYTAGAAYVISGDVAAKVYEASQTLNSSLYIDDVFMGLCANKIGIVPQDHVFFSGEGKTPYHPCIYEKMMTSHGHLEDLQDLWKNATDPKVKTISKGFFGQIYCRLMKIILLCKISYVDTYPCRAAFI
With B1, the expression_or_secretion result in “Western blot, HEK293T” is “decreases”.

B2: B3GNT5 (β1,3-N-acetylglucosaminyltransferase V): tunicamycin (TM, 2.5 μg/mL, 24 h) (protein)
parent chain: MRMLVSGRRVKKWQLIIQLFATCFLASLMFFWEPIDNHIVSHMKSYSYRYLINSYDFVNDTLSLKHTSAGPRYQYLINHKEKCQAQDVLLLLFVKTAPENYDRRSGIRRTWGNENYVRSQLNANIKTLFALGTPNPLEGEELQRKLAWEDQRYNDIIQQDFVDSFYNLTLKLLMQFSWANTYCPHAKFLMTADDDIFIHMPNLIEYLQSLEQIGVQDFWIGRVHRGAPPIRDKSSKYYVSYEMYQWPAYPDYTAGAAYVISGDVAAKVYEASQTLNSSLYIDDVFMGLCANKIGIVPQDHVFFSGEGKTPYHPCIYEKMMTSHGHLEDLQDLWKNATDPKVKTISKGFFGQIYCRLMKIILLCKISYVDTYPCRAAFI
For the protein B2, in data set [1], the expression_or_secretion result is given as “decreases”.
